These results are taken from the supplement of paper PMC5998384.

Series [1] has as its system HeLa Kyoto. Put plainly: solubility in G1/S (NP-40 vs SDS abundance) (log2 ratio); higher = more soluble. The conditions noted are these: cell cycle stage: G1/S.
Series [2] concerns HeLa Kyoto. In words: melting temperature (median over replicates), in situ; higher = more thermally stable.
Series [3] concerns HeLa Kyoto. In words: thermal stability score vs G1/S (z-score of summed log2 fold changes over temperatures); higher = more thermally stable than in G1/S.
The test system of series [4] is HeLa Kyoto. Put plainly: solubility change mitosis vs G1/S (difference of NP-40 vs SDS log2 ratios) (log2 ratio difference); higher = more soluble in mitosis.
[5] abbreviates: cell cycle stage: early G1 (4.5 h after nocodazole release).
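For melting temperature (median over replicates), in situ in this document: HeLa Kyoto cells synchronized by double thymidine or nocodazole block, proteins quantified by TMT10plex mass spectrometry, three independent biological replicates.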
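For solubility change mitosis vs G1/S (difference of NP-40 vs SDS log2 ratios) in this document: synchronized HeLa Kyoto cells (double thymidine block for G1/S, nocodazole release for mitosis), protein amounts in NP-40 versus SDS lysates quantified by mass spectrometry, three biological replicates.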
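For solubility in G1/S (NP-40 vs SDS abundance) in this document: HeLa Kyoto cells arrested at G1/S by double thymidine block, proteins quantified by TMT10plex mass spectrometry in mild NP-40 versus SDS extracts, three biological replicates.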
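For thermal stability score vs G1/S (z-score of summed log2 fold changes over temperatures) in this document: synchronized HeLa Kyoto cells, proteins quantified by TMT10plex mass spectrometry, three biological replicates, mitosis taken 0.5 h after nocodazole release, G1/S directly after double thymidine block.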

For “MAEQEPTAEQLAQIAAENEEDEHSVNYKPPAQKSIQEIQELDKDDESLRKYKEALLGRVAVSADPNVPNVVVTGLTLVCSSAPGPLELDLTGDLESFKKQSFVLKEGVEYRIKISFRVNREIVSGMKYIQHTYRKGVKIDKTDYMVGSYGPRAEEYEFLTPVEEAPKGMLARGSYSIKSRFTDDDKTDHLSWEWNLTIKKDWKD [ARHGDIA]”, the “solubility in G1/S (log2)” value in the series with HeLa Kyoto [1] turned out to be 0.25. The melting temperature stood at 51.5 °C in the series on HeLa Kyoto [2] (cell cycle stage: G1/S) and 51.7 °C with HeLa Kyoto [2] (cell cycle stage: mitosis). Besides, the thermal stability score in the series on HeLa Kyoto [3] (setting [5]) is 0.408; with HeLa Kyoto [3] (cell cycle stage: mitosis), -2.01. Moreover, the “solubility change mitosis (log2)” value with HeLa Kyoto [4] is -0.109.

For “MAERAALEELVKLQGERVRGLKQQKASAELIEEEVAKLLKLKAQLGPDESKQKFVLKTPKGTRDYSPRQMAVREKVFDVIIRCFKRHGAEVIDTPVFELKETLMGKYGEDSKLIYDLKDQGGELLSLRYDLTVPFARYLAMNKLTNIKRYHIAKVYRRDNPAMTRGRYREFYQCDFDIAGNFDPMIPDAECLKIMCEILSSLQIGDFLVKVNDRRILDGMFAICGVSDSKFRTICSSVDKLDKVSWEEVKNEMVGEKGLAPEVADRIGDYVQQHGGVSLVEQLLQDPKLSQNKQALEGLGDLKLLFEYLTLFGIDDKISFDLSLARGLDYYTGVIYEAVLLQTPAQAGEEPLGVGSVAAGGRYDGLVGMFDPKGRKVPCVGLSIGVERIFSIVEQRLEALEEKIRTTETQVLVASAQKKLLEERLKLVSELWDAGIKAELLYKKNPKLLNQLQYCEEAGIPLVAIIGEQELKDGVIKLRSVTSREEVDVRREDLVEEIKRRTGQPLCIC [HARS]”, in the series on HeLa Kyoto [1], the “solubility in G1/S (log2)” value was 0.354. Moreover, the melting temperature with HeLa Kyoto [2] (cell cycle stage: G1/S) stood at 53.5 °C; in the series on HeLa Kyoto [2] (cell cycle stage: mitosis), 53 °C. Also, the values for the thermal stability score in the series with HeLa Kyoto [3] (setting [5]) and in the series on HeLa Kyoto [3] (cell cycle stage: mitosis) were 5.06 and 4.5, respectively. Further, the “solubility change mitosis (log2)” value with HeLa Kyoto [4] was -0.113.

As for “MAERGELDLTGAKQNTGVWLVKVPKYLSQQWAKASGRGEVGKLRIAKTQGRTEVSFTLNEDLANIHDIGGKPASVSAPREHPFVLQSVGGQTLTVFTESSSDKLSLEGIVVQRAECRPAASENYMRLKRLQIEESSKPVRLSQQLDKVVTTNYKPVANHQYNIEYERKKKEDGKRARADKQHVLDMLFSAFEKHQYYNLKDLVDITKQPVVYLKEILKEIGVQNVKGIHKNTWELKPEYRHYQGEEKSD [GTF2F2]”, the “solubility in G1/S (log2)” value in the series with HeLa Kyoto [1] stood at 0.436. Also, the melting temperature with HeLa Kyoto [2] (cell cycle stage: G1/S) and in the series with HeLa Kyoto [2] (cell cycle stage: mitosis) was 52.6 °C throughout. In addition, the figures for the thermal stability score in the series with HeLa Kyoto [3] (setting [5]) and in the series with HeLa Kyoto [3] (cell cycle stage: mitosis) were 0.0893 and 0.0418, respectively. Moreover, the “solubility change mitosis (log2)” value with HeLa Kyoto [4] is -0.0476.

As for “MAERGYSFSLTTFSPSGKLVQIEYALAAVAGGAPSVGIKAANGVVLATEKKQKSILYDERSVHKVEPITKHIGLVYSGMGPDYRVLVHRARKLAQQYYLVYQEPIPTAQLVQRVASVMQEYTQSGGVRPFGVSLLICGWNEGRPYLFQSDPSGAYFAWKATAMGKNYVNGKTFLEKRYNEDLELEDAIHTAILTLKESFEGQMTEDNIEVGICNEAGFRRLTPTEVKDYLAAIA [PSMA2]”, the “solubility in G1/S (log2)” value in the series with HeLa Kyoto [1] amounted to 0.391. The melting temperature turned out to be 58.3 °C in the series with HeLa Kyoto [2] (cell cycle stage: G1/S) and 60.8 °C in the series with HeLa Kyoto [2] (cell cycle stage: mitosis). Besides, the thermal stability score in the series on HeLa Kyoto [3] (setting [5]) was -1.52; in the series on HeLa Kyoto [3] (cell cycle stage: mitosis), -1.53. Also, the “solubility change mitosis (log2)” value in the series on HeLa Kyoto [4] was -0.045.

Turning to “MAERRRHKKRIQEVGEPSKEEKAVAKYLRFNCPTKSTNMMGHRVDYFIASKAVDCLLDSKWAKAKKGEEALFTTRESVVDYCNRLLKKQFFHRALKVMKMKYDKDIKKEKDKGKAESGKEEDKKSKKENIKDEKTKKEKEKKKDGEKEESKKEETPGTPKKKETKKKFKLEPHDDQVFLDGNEVYVWIYDPVHFKTFVMGLILVIAVIAATLFPLWPAEMRVGVYYLSVGAGCFVASILLLAVARCILFLIIWLITGGRHHFWFLPNLTADVGFIDSFRPLYTHEYKGPKADLKKDEKSETKKQQKSDSEEKSDSEKKEDEEGKVGPGNHGTEGSGGERHSDTDSDRREDDRSQHSSGNGNDFEMITKEELEQQTDGDCEEDEEEENDGETPKSSHEKS [SEC62]”, the “solubility in G1/S (log2)” value in the series on HeLa Kyoto [1] was -0.134. Besides, the melting temperature in the series on HeLa Kyoto [2] (cell cycle stage: G1/S) was determined as 55.5 °C; with HeLa Kyoto [2] (cell cycle stage: mitosis) it was 55.4 °C. Also, the thermal stability score with HeLa Kyoto [3] (setting [5]) is -4.12; with HeLa Kyoto [3] (cell cycle stage: mitosis) it was -4.37. Besides, the “solubility change mitosis (log2)” value with HeLa Kyoto [4] was found to be 0.0142.

With “MAESPTEEAATAGAGAAGPGASSVAGVVGVSGSGGGFGPPFLPDVWAAAAAAGGAGGPGSGLAPLPGLPPSAAAHGAALLSHWDPTLSSDWDGERTAPQCLLRIKRDIMSIYKEPPPGMFVVPDTVDMTKIHALITGPFDTPYEGGFFLFVFRCPPDYPIHPPRVKLMTTGNNTVRFNPNFYRNGKVCLSILGTWTGPAWSPAQSISSVLISIQSLMTENPYHNEPGFEQERHPGDSKNYNECIRHETIRVAVCDMMEGKCPCPEPLRGVMEKSFLEYYDFYEVACKDRLHLQGQTMQDPFGEKRGHFDYQSLLMRLGLIRQKVLERLHNENAEMDSDSSSSGTETDLHGSLRV [UBE2Z]”, the “solubility in G1/S (log2)” value in the series with HeLa Kyoto [1] came to 0.403. Moreover, the melting temperature amounted to 52.7 °C with HeLa Kyoto [2] (cell cycle stage: G1/S) and 52.8 °C with HeLa Kyoto [2] (cell cycle stage: mitosis). For the same sequence, the thermal stability score was -0.171 in the series with HeLa Kyoto [3] (setting [5]) and -0.398 with HeLa Kyoto [3] (cell cycle stage: mitosis). In addition, the “solubility change mitosis (log2)” value with HeLa Kyoto [4] is -0.169.
